Measured values: doi:10.1101/212290 (bioRxiv, 2017)

Biological target: IscU-IscS complex (E. coli, UniProt P0A6B7;P0ACD4, biotin (site not stated))
Assay: BLI

Chain of IscU-IscS complex (P0A6B7 whole entry, chain 1 of 2): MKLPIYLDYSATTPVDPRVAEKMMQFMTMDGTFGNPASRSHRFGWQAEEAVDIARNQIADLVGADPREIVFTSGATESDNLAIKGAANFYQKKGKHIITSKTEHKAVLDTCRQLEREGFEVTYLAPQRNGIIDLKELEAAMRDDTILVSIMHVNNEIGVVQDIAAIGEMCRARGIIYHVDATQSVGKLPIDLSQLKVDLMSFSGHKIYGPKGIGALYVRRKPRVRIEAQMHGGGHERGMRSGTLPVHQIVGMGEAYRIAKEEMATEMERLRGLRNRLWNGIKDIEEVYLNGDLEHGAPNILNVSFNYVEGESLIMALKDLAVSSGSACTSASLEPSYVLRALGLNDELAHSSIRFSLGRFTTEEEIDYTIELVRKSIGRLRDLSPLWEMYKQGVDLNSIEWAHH
Chain of IscU-IscS complex (P0ACD4 2-128, chain 2 of 2): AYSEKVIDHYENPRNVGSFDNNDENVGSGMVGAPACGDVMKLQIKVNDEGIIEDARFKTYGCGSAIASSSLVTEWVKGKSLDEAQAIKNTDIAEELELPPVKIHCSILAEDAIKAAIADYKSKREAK

B1: IscX (natural protein)
chain: MGLKWTDSREIGEALYDAYPDLDPKTVRFTDMHQWICDLEDFDDDPQASNEKILEAILLVWLDEAE
modifications: most likely a mixed disulfide with beta-mercaptoethanol (+76 Da) on the majority of the protein
  Kd: 8 ± 2 µM
